These results are taken from the RNAGym collection of RNA variant scans (doi:10.7554/elife.80360).

The chains are these.
B1: CPEB3 Ribozyme (parent)
chain: GGGGGCCACAGCAGAAGCGUUCACGUCGCGGCCCCUGUCAGAUUCUGGUGAAUCUGCGAAUUCUGCUGU

Variants of B1 are the subject of this data set. The experiment in a line: self-cleavage, relative activity (ratio to wild type); higher = more cleavage; co-transcriptional.
Regarding GGGGGCCACAGCAGAAGCGUUCACGUCGCGGCCCCUGUUAGAUUCUGGUGAAUCUGCGAGUUCUGCUGU, the self-cleavage is 0.667.
As to GGGGGCCACAGCAGAAGCGUUCACGUCGCGGCCCCUGUUAGAUUCUGGUGAAUCUGCGAUUUCUGCUGU, the self-cleavage is 0.266.
With GGGGGCCACAGCAGAAGCGUUCACGUCGCGGCCCCUGUUAGAUUCUGGUGAAUCUGCGAAUUCGGCUGU the figure was 0.733.
For the variant GGGGGCCACAGCAGAAGCGUUCACGUCGCGGCCCCUGUUAGAUUCUGGUGAAUCUGCGAAUUCCGCUGU, the self-cleavage was found to be 0.699.
As for GGGGGCCACAGCAGAAGCGUUCACGUCGCGGCCCCUGUUAGAUUCUGGUGAAUCUGCGAAUUCUACUGU, the self-cleavage came to 0.56.
With GGGGGCCACAGCAGAAGCGUUCACGUCGCGGCCCCUGUUAGAUUCUGGUGAAUCUGCGAAUUCUUCUGU, the self-cleavage is 0.498.
As to GGGGGCCACAGCAGAAGCGUUCACGUCGCGGCCCCUGUCCGAUUUUGGUGAAUCUGCGAAUUCUGCUGU, the self-cleavage amounted to 0.497.
As to GGGGGCCACAGCAGAAGCGUUCACGUCGCGGCCCCUGUCCGAUUAUGGUGAAUCUGCGAAUUCUGCUGU, the self-cleavage stood at 0.534.
For the variant GGGGGCCACAGCAGAAGCGUUCACGUCGCGGCCCCUGUCCGAUUGUGGUGAAUCUGCGAAUUCUGCUGU, the self-cleavage was 0.531.
Consider GGGGGCCACAGCAGAAGCGUUCACGUCGCGGCCCCUGUUAGAUUCUGGUGAAUCGGCGAAUUCUGCUGU, for which the self-cleavage came to 0.661.
Turning to GGGGGCCACAGCAGAAGCGUUCACGUCGCGGCCCCUGUUAGACUCUGGUGAAUCUGCGAAUUCUGCUGU, the self-cleavage amounted to 0.687.
GGGGGCCACAGCAGAAGCGUUCACGUCGCGGCCCCUGUCCGAUUCUGGUGGAUCUGCGAAUUCUGCUGU: the self-cleavage came to 0.494.
Take GGGGGCCACAGCAGAAGCGUUCACGUCGCGGCCCCUGUCCGAUUCUGGUGUAUCUGCGAAUUCUGCUGU: the self-cleavage stood at 0.324.
With GGGGGCCACAGCAGAAGCGUUCACGUCGCGGCCCCUGUCCGAUUCUGGUGAAUUUGCGAAUUCUGCUGU, the self-cleavage came out at 0.523.
Take GGGGGCCACAGCAGAAGCGUUCACGUCGCGGCCCCUGUCCGAUUCUGGUGAAUAUGCGAAUUCUGCUGU: the self-cleavage is 0.244.
Turning to GGGGGCCACAGCAGAAGCGUUCACGUCGCGGCCCCUGUUAGAUUCUGGUGAAUCUGCGAAUUCUGCUGC, the self-cleavage was 1.04.
Under GGGGGCCACAGCAGAAGCGUUCACGUCGCGGCCCCUGUCCGAUUCUGGUGAAUCUGGGAAUUCUGCUGU stands 0.316; under GGGGGCCACAGCAGAAGCGUUCACGUCGCGGCCCCUGUCCGAUUCUGGUGAAUCUGAGAAUUCUGCUGU, 0.2.
On to GGGGGCCACAGCAGAAGCGUUCACGUCGCGGCCCCUGUUAGAUUCUGGUGAAUCUGCGAAUUAUGCUGU, for which the self-cleavage worked out at 0.54.
Under GGGGGCCACAGCAGAAGCGUUCACGUCGCGGCCCCUGUUAGAUUCUGGUGAAUCUGCGAAUUGUGCUGU stands 0.451; under GGGGGCCACAGCAGAAGCGUUCACGUCGCGGCCCCUGUUAGAUUCUGGUGAAUCUGCGAAUUUUGCUGU, 0.84.
As for GGGGGCCACAGCAGAAGCGUUCACGUCGCGGCCCCUGUUAGAUUCUGGGGAAUCUGCGAAUUCUGCUGU, the self-cleavage stood at 0.975.
Consider GGGGGCCACAGCAGAAGCGUUCACGUCGCGGCCCCUGUUAGAUUCUGGAGAAUCUGCGAAUUCUGCUGU, for which the self-cleavage stood at 0.971.
Consider GGGGGCCACAGCAGAAGCGUUCACGUCGCGGCCCCUGUCCGAUUCUGGUGAAUCUGCGAUUUCUGCUGU, for which the self-cleavage is 0.217.
With GGGGGCCACAGCAGAAGCGUUCACGUCGCGGCCCCUGUUAGAUUCUGAUGAAUCUGCGAAUUCUGCUGU, the self-cleavage was found to be 0.998.
With GGGGGCCACAGCAGAAGCGUUCACGUCGCGGCCCCUGUUAGAUUCUGUUGAAUCUGCGAAUUCUGCUGU, the self-cleavage is 0.941.
For the variant GGGGGCCACAGCAGAAGCGUUCACGUCGCGGCCCCUGUUAGAUUCUGGUGAAUCUGCGAAUUCUGCCGU, the self-cleavage was 0.882.
Turning to GGGGGCCACAGCAGAAGCGUUCACGUCGCGGCCCCUGUUAGAUUCUGGUGAAUCUGCGAAUUCUGCGGU, the self-cleavage came to 0.923.
Take GGGGGCCACAGCAGAAGCGUUCACGUCGCGGCCCCUGUUAGAUUCUGGUGAAUCUGCGAAUUCUGCAGU: the self-cleavage came out at 0.902.
Consider GGGGGCCACAGCAGAAGCGUUCACGUCGCGGCCCCUGUUAGAUUCUGGUCAAUCUGCGAAUUCUGCUGU, for which the self-cleavage was 0.744.
For GGGGGCCACAGCAGAAGCGUUCACGUCGCGGCCCCUGUUAGAUUCUGGUUAAUCUGCGAAUUCUGCUGU, the self-cleavage worked out at 0.895.
In the case of GGGGGCCACAGCAGAAGCGUUCACGUCGCGGCCCCUGUCCGAUUCUGGUGAAUCUGCGAAUUCUGAUGU, the self-cleavage turned out to be 0.232.
In the case of GGGGGCCACAGCAGAAGCGUUCACGUCGCGGCCCCUGUCCGAUUCUGGUGAAUCUGCGAAUUCUGUUGU, the self-cleavage was 0.443.
As for GGGGGCCACAGCAGAAGCGUUCACGUCGCGGCCCCUGUCCGAUUCUGGUGAAUCUGCGAAUUCUGGUGU, the self-cleavage worked out at 0.36.
Turning to GGGGGCCACAGCAGAAGCGUUCACGUCGCGGCCCCUGUUAGAUUCUGGUGAAUCUGUGAAUUCUGCUGU, the self-cleavage turned out to be 0.37.
For the variant GGGGGCCACAGCAGAAGCGUUCACGUCGCGGCCCCUGUCCCAUUCUGGUGAAUCUGCGAAUUCUGCUGU, the self-cleavage stood at 0.324.
As for GGGGGCCACAGCAGAAGCGUUCACGUCGCGGCCCCUGUCCAAUUCUGGUGAAUCUGCGAAUUCUGCUGU, the self-cleavage stood at 0.333.
GGGGGCCACAGCAGAAGCGUUCACGUCGCGGCCCCUGUCCGAUUCUGGUGAGUCUGCGAAUUCUGCUGU: the self-cleavage was determined as 0.583.
Consider GGGGGCCACAGCAGAAGCGUUCACGUCGCGGCCCCUGUCCGAUUCUGGUGAAUCUGCGGAUUCUGCUGU, for which the self-cleavage worked out at 0.515.
